According to the DeepSol protein solubility set:

Experiment: soluble on expression in E. coli; label from the status in PepcDB or PDB records

Sequence | soluble on expression in E. coli
MGPTPHIAVIGGGSTGAGIARDLAMRGLDVTLVEQGNLTHGTTGRMHGLLHSGGRYAVSDQASATECIEENRVLRDIASHCVEMTGGLFVKRPEDSEEYFQKKLNGCEECGIPAEVVSGEEARAMEPHLAKDIDKAISVPDGAIDPFRLVVANAASAQEHGARIETHTKVTDLLVESGEVVGIEVEHDSGPGKRVHGTEGGTEQIRADYVVNATGAWAGRIGDMAGLDIEVRPSKGVMTIMNIRQVDTVINRCRPKGDADIVVPHETTAILGTTDEEVEDPEDYPEEQWEVDMMIDTLSELIPMLDEARTIRSFWGVRPLYEPPDVGSDDPTDITRDFFLLDHDERDDLPGMTSIVGGKFTTYRMMGEQIADHVCGKFGIDADCRTADEPLPGSEDFSVLRDYMDEFGLRSPIGRRSVERLGSRADDVLKTDGPNPTVCACEGVTRAEIQDAIGGSGSDLNAVRIRTRASMGNCQGGFCSHRMASELHSEYDEPVVREAWDELLQERWKGQRHALWGEQLSQAALNYALHATTQNRDQDPADGEPVDFSAFDSGRGQTGGSVDSADVAADGGTNGYLEHHHHHH | not soluble
MRSLADFEFNKAPLCEGMILACEAIRRDFPSQDVYDELERLVSLAKEEISQLLPLEEQLEKLIALFYGDWGFKASRGVYRLSDALWLDQVLKNRQGSAVSLGAVLLWVANRLDLPLLPVIFPTQLILRIECPDGEIWLINPFNGESLSEHMLDGWLKGNISPSAELFYEDLDEADNIEVIRKLLDTLKASLMEENQMELALRTSEALLQFNPEDPYEIRDRGLIYAQLDCEHVALNDLSYFVERCPEDPISEMIRAQINNIAHKHIVLHMAGDPLEHHHHHH | soluble
MSLNHSVRKCGYLRKQKHGHKRFFVLRGPGAGGDEATAGGGSAPQPPRLEYYESEKKWRSKAGAPKRVIALDCCLNINKRADAKHKYLIALYTKDEYFAVAAENEQEQEGWYRALTDLVSEGRAAAGDAPPAAAPAASCSASLPGALGGSAGAAGAEDSYGLVAPATAAYREVWQVNLKPKGLGQSKNLTGVYRLCLSARTIGFVKLNCEQPSVTLQLMNIRRCGHSDSFFFIEVGRSAVTGPGELWMQADDSVVAQNIHETILEAMKALKELFEFRPREGHHHHHH | soluble
MANIEIYTKATCPFCHRAKALLNSKGVSFQEIAIDGDAVKREEMIKRSGRTTVPQIFIDAQHIGGCDDLYALDARGGLDPLLR | not soluble
MGSDKIHHHHHHMLTTPEMREQFRNDGVTIFRNCLNEAQLAQCYDGFKWDMANPGPHVYKGGLIGTTLHTHIDIANPEAKSELDDLAAALPFGQIFQELWDSKNVWYFAEEIFAKEGGKSGRGPWHQDTANLPWAGRHWGNAWISFQKLPKKNSLEIVRGSHLGIQYDGASFDSAEDPTDPLYGDGTYPRLPHIDNELARDPNSWDIVSFDINPGDIVLLHPRSLHGGAQVDADCPTRHTLVLRFFGDDATFRELPTCNPKYARNGPLFQKEMAKLNQGDAFRSPVFRQVAGV | not soluble
MGSDKIHHHHHHMKLPIKKAVEALLKLQTTGDSATLIGVGPMSRNLLQASFELAKEDDYPLMFIASRNQVDADELGGGYVNGWNQFSFIDAIKEVAKEVDFDGLYYVCRDHGGPWQRDQERNDHLPTEKAMELGKKSYIADIEAGFDLLMIDPTKDPFEVGKVIPLETVLERTVDLIAFCEEERKKRGLPEIGYEVGTEETNGGLTSTETYEKFITQLKVELEKRDLPLPTFIVGQTGTLTRKTEQVGHFNFKNAYDLAQMAKKYGVGLKEHNGDYLDDVTLLEHIPSEITATNVAPQYGTEETRAYLKLVELEQKLVENGLIKTPSNAREVLLIQSIKSERWRKWMLDGQKDITINEIMQDDDLSLEILDIAGHYTFNDAMVKKEINTLYANLAANNIDGKRFVIDHIKRPIRNYSECYNLKGATTRIKQLAK | not soluble
LTLPGIANLRRLRVDDVAIPKVEIVAVPVDIGKEDLVAVFREHGFSRLPVYRETLDQPLGLVLLKDLALQHGFNGNGSFDLKTLLRPLLYAPPSMPIGVLLQKMQRERVHMALVIDEYGGVDGLVTIEDLIETVIGEIEDEHDEVEGPLWTLEKPGVYMAQSRTPLDEFEAEIGLRLRREEEDEEIDTLGGLV | not soluble
MSLGSRKKFGATYMTTNNRFYEIINDEIRSVVESNGDILVTRDAALDKNKQMQQIYEFIKLKVKAIFINPVDWKQIKPALIAAKNAGIPVIVVDTPVYDDKLVACTVISDNYDAGVQCAKYLMKSKSKANIMLIEHSKAKSGIDRIKGFVDTIGASKQYKIVAAGDSEGQLDKTMSLVDDLIKKHTNVDAIMALNDPSALGALAALKENGLLGKVMVFGVDGSPEAKTMIHDGFMTATSAQFPNKIGHIAAEKAYDILKGKRLKRDVIVPISLISKENLLKYEISGWKEGHHHHHH | soluble
MGSDKIHHHHHHMKSPQELRNKLFRYWRQPGLRLRQLLDQAAWPLVLSIGKPTAQVFSSQVAMVQKHVEAWREVSVGKVEWKRIGYRSGADLVSIPTQWCLRSPTEWITAMSNEEISAQYMSLEHLVEHLPAVYRRLIITRPSLWKNKRSEEVIQVAGLAQRLSPGCAQGLPLRLLSGYGVDTKFFERNELLLSKMLDVRYEGEASRQGLCDFLDAYDDTSHWVLLAPLEAGLLPFKRQLVTTSELGRASLPGTRLLIVENQKCLHLLRELPGTIAILGCGSDLAWLGSAQLHGKSIAYWGDVDTWGMRMLARARSRFNAVIPLLMTATVFDAHSDFTVPEPIRAQDTPPADLTPSETALFKRLVQCSRGRLEQEFISREVVWAALEEWIQRRRG | not soluble
MKLSRRSFMKANAVAAAAAAAGLSVPGVARAVVGQQEAIKWDKAPCRFCGTGCGVLVGTQQGRVVACQGDPDAPVNRGLNCIKGYFLPKIMYGKDRLTQPLLRMKNGKYDKEGEFTPITWDQAFDVMEEKFKTALKEKGPESIGMFGSGQWTIWEGYAASKLFKAGFRSNNIDPNARHCMASAVVGFMRTFGMDEPMGCYDDIEQADAFVLWGANMAEMHPILWSRITNRRLSNQNVTVAVLSTYQHRSFELADNGIIFTPQSDLVILNYIANYIIQNNAINQDFFSKHVNLRKGATDIGYGLRPTHPLEKAAKNPGSDASEPMSFEDYKAFVAEYTLEKTAEMTGVPKDQLEQLAQLYADPNKKVISYWTMGFNQHTRGVWANNLVYNLHLLTGKISQPGCGPFSLTGQPSACGTAREVGTFAHRLPADMVVTNEKHRDICEKKWNIPSGTIPAKIGLHAVAQDRALKDGKLNVYWTMCTNNMQAGPNINEERMPGWRDPRNFIIVSDPYPTVSALAADLILPTAMWVEKEGAYGNAERRTQFWRQQVQAPGEAKSDLWQLVQFSRRFKTEEVWPEDLLAKKPELRGKTLYEVLYATPEVSKFPVSELAEDQLNDESRELGFYLQKGLFEEYAWFGRGHGHDLAPFDDYHKARGLRWPVVNGKETQWRYSEGNDPYVKAGEGYKFYGKPDGKAVIFALPFEPAAEAPDEEYDLWLSTGRVLEHWHTGSMTRRVPELHRAFPEAVLFIHPLDAKARDLRRGDKVKVVSRRGEVISIVETRGRNRPPQGLVYMPFFDAAQLVNKLTLDATDPLSKETDFKKCAVKLEKV | not soluble
MSLQDESPLLIITDSALVRDALVTHISETRRLLIADSHDVGMELALSFRPALILLDASSTDGEALALLRAFRSEPHLDDTFILVLSDEAAVLERLEASRAGADDFLRLPVDQAELTARVAVALRQARLSRRLRAYTRRIEEEMRLVADLQMRLLPAYTPYLASLRIDSFYQPSTEASGDYFDHFLLPGEDRLRVVIADASGHGARSAVLMTMVRTLFHASHAANTPLTDMLLEINTNLLDVVGNEPDFVTLFAADLDLRGNTLRYVNAGHCPALLRHPDGTTMRLSGTTPRLGFFGVRETERLVPFTPGTRLLLYTDGFHDCATASGRRLGIDRFLSLAEATMRRGGDVLSSLREDISTTFGEPPTWPDDVTALYIERKEEGHHHHHH | soluble
MHEWGLSEELKIQTKQMIEIAEKELSIMRNAIDKEDECILCKMEDIHHMLANVQTLAATYYIQAYLSPYTESSSFITTAIQHLSARKHGALIVVERNETLEALIQTGTTLNAHLTAPLLESIFYPGNPLHDGAVLVKNNHIVSAANILPLTKSTEVDPELGTRHRAAIGLSEKSDALILVVSEETGRTSFALNGILYTISL | soluble
MANFVQLSETPAACSSNPCGPEAAGTCKETNSGYICRCNQGYRISLDGTGNVTCIVRQESG | soluble
